# Measurements published in patent US20150175708A1.
# Columns and labels:
# [1] = molecular target: EGFR on the cell surface of human tumor cell lines (human) (UniProt P00533); assay: cell-based or functional assay
# [2] = molecular target: MET on the cell surface of human tumor cell lines (human) (UniProt P08581); assay: cell-based or functional assay
# Sequence of MET on the cell surface of human tumor cell lines (human) (P08581 25-1390): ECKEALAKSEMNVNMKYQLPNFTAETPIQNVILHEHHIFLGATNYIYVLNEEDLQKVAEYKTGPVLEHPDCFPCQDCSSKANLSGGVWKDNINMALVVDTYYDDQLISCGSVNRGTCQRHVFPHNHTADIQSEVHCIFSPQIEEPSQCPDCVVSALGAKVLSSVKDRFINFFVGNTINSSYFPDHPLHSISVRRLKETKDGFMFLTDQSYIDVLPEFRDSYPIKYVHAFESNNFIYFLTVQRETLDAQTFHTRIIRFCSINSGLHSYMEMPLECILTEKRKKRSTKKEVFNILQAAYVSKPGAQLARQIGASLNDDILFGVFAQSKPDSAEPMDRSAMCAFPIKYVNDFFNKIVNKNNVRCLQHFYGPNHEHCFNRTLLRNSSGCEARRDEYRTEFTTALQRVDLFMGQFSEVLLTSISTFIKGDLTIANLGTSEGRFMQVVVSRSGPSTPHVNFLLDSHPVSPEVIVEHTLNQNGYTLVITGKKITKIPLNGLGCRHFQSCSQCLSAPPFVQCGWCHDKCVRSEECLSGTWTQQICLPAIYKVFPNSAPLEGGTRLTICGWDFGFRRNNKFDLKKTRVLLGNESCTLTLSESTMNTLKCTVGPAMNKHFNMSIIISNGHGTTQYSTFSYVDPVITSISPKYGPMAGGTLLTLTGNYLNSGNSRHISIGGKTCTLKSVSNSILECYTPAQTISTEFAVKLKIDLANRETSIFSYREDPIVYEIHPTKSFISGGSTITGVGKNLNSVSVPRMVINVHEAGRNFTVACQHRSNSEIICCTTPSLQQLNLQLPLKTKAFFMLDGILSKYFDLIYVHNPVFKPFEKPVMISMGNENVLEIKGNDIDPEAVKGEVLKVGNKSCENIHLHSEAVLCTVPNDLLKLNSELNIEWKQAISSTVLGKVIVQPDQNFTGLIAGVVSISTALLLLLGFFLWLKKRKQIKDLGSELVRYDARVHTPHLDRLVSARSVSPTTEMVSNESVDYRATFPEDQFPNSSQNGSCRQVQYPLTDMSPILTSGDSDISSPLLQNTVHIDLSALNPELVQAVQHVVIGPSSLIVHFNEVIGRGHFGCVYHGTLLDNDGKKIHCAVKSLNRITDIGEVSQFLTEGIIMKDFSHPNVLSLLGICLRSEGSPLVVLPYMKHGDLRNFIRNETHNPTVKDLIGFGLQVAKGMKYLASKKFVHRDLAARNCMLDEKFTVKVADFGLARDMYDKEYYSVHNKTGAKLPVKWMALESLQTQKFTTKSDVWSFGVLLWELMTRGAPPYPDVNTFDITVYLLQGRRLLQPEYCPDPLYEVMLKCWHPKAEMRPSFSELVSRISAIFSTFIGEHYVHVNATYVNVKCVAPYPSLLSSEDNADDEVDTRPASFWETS
substance,measurement,setting,value
hIgG4 (antibody),"% cell surface EGFR remaining, H441 cells, antibody 50 nM; isotype control, reference for the %",[1],100%
same,"AVG of MFI (staining of cell surface EGFR), H441 cells, antibody 50 nM; isotype control, reference for the %",[1],56.3 MFI
same,"% cell surface MET remaining, H441 cells, antibody 50 nM; isotype control, reference for the %",[2],100%
same,"AVG of MFI (staining of cell surface MET), H441 cells, antibody 50 nM; isotype control, reference for the %",[2],77.4 MFI
